Source: PMC6816459 (Methods in molecular biology (Clifton, N.J.), 2019)

Target: the molecule itself

B1: C. elegans Vps4 (enzyme, UniProt Q9BL83 1-430, looked up)
chain: MSVPALQKAIELVTKATEEDTAGRYDQALRLYDQAIEYFLHAIKYESQGDKQRNAIRDKVGQYLNRAEQIKTHLKDGKTQKKPVKDGKDDSDEDEDKKKFQDKLSGAIVMEKPNVKWTDIAGLEGAKEALKEAVILPIKFPQLFTGNRKPWQGILLFGPPGTGKSYIAKAVATEAGESTFFSISSSDLMSKWLGESEKLVKNLFALAREHKPSIIFIDEIDSLCSARSDNESESARRIKTEFMVQMQGVGLNNDGILVLGATNIPWILDSAIRRRFEKRIYIPLPDIHARKEMFRIDVGKNYNTLTDQDFKVLAERCEGYSGYDISILVKDALMQPVRRVQSATHFKHVSGPSPKDPNVIAHDLLTPCSPGDPHAIAMNWLDVPGDKLANPPLSMQDISRSLASVKPTVNNTDLDRLEAFKNDFGQDGQE
  stoichiometry N: 6
